Experimental data reported in publication PMC7215387, “Comparison of Target Recognition by TRAF1 and TRAF2” (International Journal of Molecular Sciences, 2020).

Target: T1, TRAF2 (Homo sapiens, UniProt Q12933)
T1 construct: TRAF2 TRAF domain (amino acid residues 305-501); 6xHis (C); made in house; host or cells: E. coli BL21 (DE3)
T1 sequence (Q12933 305-501): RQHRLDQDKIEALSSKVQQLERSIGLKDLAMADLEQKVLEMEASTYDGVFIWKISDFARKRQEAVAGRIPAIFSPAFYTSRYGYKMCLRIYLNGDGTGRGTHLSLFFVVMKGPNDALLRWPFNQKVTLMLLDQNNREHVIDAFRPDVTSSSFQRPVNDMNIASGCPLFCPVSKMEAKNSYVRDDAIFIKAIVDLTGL
Assay: Complex formation assay by gel-filtration (size-exclusion) chromatography with TRAF2
Type: binding
Settings: Superdex 200 10/30, 20 mM Tris pH 8.0, 150 mM NaCl; 1 h at 4 °C; peak around 14 mL
Excerpt: TRADD is a well-known regulator of the TRAF function. The death domain located at the C-terminus of TRADD interacts with death-domain containing receptors and adaptor proteins including TNFR, receptor interacting protein 1 (RIP1) and Fas-associated death domain protein (FADD), while the N-terminal domain of TRADD (TRADD-N) interacts with the TRAF domain of TRAF2 (Figure 2a). Although several indirect interactions between TRAF1 and TRADD have been described, a direct interaction and direct analyses between TRAF1 and TRADD have not been reported. To directly study their interactions and binding properties, which may provide important clues for understanding TRAF-mediated signaling by TRADD, TRAFs and TRADD-N were purified, and initial interaction testing was performed by Native-PAGE. […] Although TRAF1 did interact with TRADD-N, this interaction was not as tight as with TRAF2 (Figure 2b). To further confirm this association, the interaction between the TRAFs and TRADD-N was further tested by size-exclusion chromatography. […]
Purified TRAF domains and TRADD-N proteins were mixed, incubated at 4 °C for 1 h, and concentrated to 4 to 5 mg/mL using a protein concentration kit (Millipore). […] Complex assembly was evaluated based on the positions of eluted protein peaks monitored at 280 nm followed by SDS-PAGE.

B1: TRADD-N: N-terminal domain of TRADD (TRADD-N, amino acid residues 1-163) (protein)
chain: MAAGQNGHEEWVGSAYLFVESSLDKVVLSDAYAHPQQKVAVYRALQAALAESGGSPDVLQMLKIHRSDPQLIVQLRFCGRQPCGRFLRAYREGALRAALQRSLAAALAQHSVPLQLELRAGAERLDALLADEERCLSCILAQQPDRLRDEELAELEDALRNLK
modifications: left off: His6 (from the vector pET24a), C-terminal, state not stated
- co-migration with TRAF2 in size-exclusion chromatography / SDS-PAGE: co-migrated well with TRADD-N at similar intensities
